Source: the supplement of paper PMC10126150
± gives the standard deviation of the averaged measurements.

Test system: ATP
Test: switch fluorescence ratio, 500 uM ATP over buffer (Cy3 cluster intensity, sum of 5 cycles each) (fold (ratio)); higher = stronger signal-on switching upon ATP binding; sequences stand for … in TCGTCGGCAGCGTCAGATGTGTATAAGAGACAGTTTTTTTTTTTTTTTTTTTTTTTTT…TC
Settings: aptamer strand: ATP DNA aptamer (quencher-CACCTGGGGGAGTATTGCGGAGGAAGG + anchor), 100 nM annealed; ATP concentration: 500 uM
Outline: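 Exposure to 500 uM ATP lasted 15 min at 22 °C before imaging, and a selection-buffer image was taken beforehand, for Cy3-labelled switching-strand clusters on a modified Illumina MiSeq flow-cell annealed to 100 nM quencher-labelled ATP aptamer. Five buffer/ATP cycles were run with NaOH stripping and re-annealing between them. The fluorescence ratio per cluster is summed target-cycle over summed buffer-cycle Cy3 intensity, averaged per switch-domain sequence. Clusters outside 100-1000 RFU were excluded.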

In the case of GACAGAGGGT, the switch fluorescence ratio is reported as 1.04 ± 0.013.
Work on GACAGCGGCG yielded a switch fluorescence ratio of 1.01 ± 0.032.
GACAGGGTCC gave a switch fluorescence ratio of 1.04 ± 0.052.
Sequence GACAGTCGGC has a switch fluorescence ratio of 0.9669 ± 0.0067.
Sequence GACATAAAGT has a switch fluorescence ratio of 0.986 ± 0.014.
In the case of GACATCCGGC, the switch fluorescence ratio is reported as 1.05 ± 0.036.
GACATGATGT gave a switch fluorescence ratio of 1.032 ± 0.0063.
With GACATTCACC the switch fluorescence ratio was 1.1 ± 0.016.
GACCAAGAAT was tested, and the switch fluorescence ratio was 1.06 ± 0.03.
Work on GACCAATATT yielded a switch fluorescence ratio of 1.134 ± 0.0034.
Sequence GACCACGCTG has a switch fluorescence ratio of 1.044 ± 0.0056.
With GACCAGCCCC the switch fluorescence ratio was 1.31 ± 0.098.
GACCATGTTT gave a switch fluorescence ratio of 0.9932 ± 0.0082.
Work on GACCCTAGAT yielded a switch fluorescence ratio of 1.008 ± 0.0036.
GACCCTGATA showed a switch fluorescence ratio of 0.987 ± 0.015.
For GACCGGACAT, the switch fluorescence ratio was 0.996 ± 0.013.
In the case of GACCGGAGTC, the switch fluorescence ratio is reported as 1.03 ± 0.049.
With GACCGTAATG the switch fluorescence ratio was 1.05 ± 0.03.
In the case of GACCTAAGAC, the switch fluorescence ratio is reported as 1.13 ± 0.053.
Work on GACCTATATT yielded a switch fluorescence ratio of 1.05 ± 0.022.
With GACCTATCTT the switch fluorescence ratio was 1.035 ± 0.0017.
Work on GACCTATTCG yielded a switch fluorescence ratio of 1.01 ± 0.018.
GACCTATTTT showed a switch fluorescence ratio of 1.023 ± 0.0039.
GACCTCAGAC was tested, and the switch fluorescence ratio was 1.09 ± 0.024.
GACCTCAGGT gave a switch fluorescence ratio of 1.08 ± 0.11.
GACCTTTGTT showed a switch fluorescence ratio of 1.01 ± 0.022.
Sequence GACGACAGTC has a switch fluorescence ratio of 1.029 ± 0.0052.
GACGACGACA showed a switch fluorescence ratio of 2.5 ± 0.092.
GACGACTATT showed a switch fluorescence ratio of 1.13 ± 0.016.
Work on GACGACTGAG yielded a switch fluorescence ratio of 0.999 ± 0.087.
With GACGAGCGGT the switch fluorescence ratio was 1.3 ± 0.22.
GACGAGGCAG was tested, and the switch fluorescence ratio was 2.27 ± 0.21.
For GACGATTGCG, the switch fluorescence ratio was 1.01 ± 0.032.
GACGATTGTG gave a switch fluorescence ratio of 0.991 ± 0.07.
GACGGAAGAA gave a switch fluorescence ratio of 1.74 ± 0.072.
GACGGAAGTT gave a switch fluorescence ratio of 1.004 ± 0.0017.
GACGGAGTCG gave a switch fluorescence ratio of 0.997 ± 0.03.
GACGGCAGTG gave a switch fluorescence ratio of 1 ± 0.02.
Sequence GACGGGATAG has a switch fluorescence ratio of 1.245 ± 0.0072.
GACGGGATCA gave a switch fluorescence ratio of 1.02 ± 0.033.
For GACGGGCCGG, the switch fluorescence ratio was 1.01 ± 0.03.
Work on GACGGGGACT yielded a switch fluorescence ratio of 1.1 ± 0.025.
GACGGGGCCC was tested, and the switch fluorescence ratio was 1 ± 0.013.
In the case of GACGGGGGAA, the switch fluorescence ratio is reported as 1.82 ± 1.3.
GACGGGGGGC showed a switch fluorescence ratio of 1.02 ± 0.018.
GACGGGGGTA showed a switch fluorescence ratio of 1.04 ± 0.043.
Work on GACGGGGTTA yielded a switch fluorescence ratio of 1.02 ± 0.018.
With GACGGGTTAG the switch fluorescence ratio was 1.02 ± 0.017.
GACGGTAAAG showed a switch fluorescence ratio of 0.996 ± 0.037.
GACGGTAGTT showed a switch fluorescence ratio of 1.01 ± 0.047.
For GACGGTCACT, the switch fluorescence ratio was 1.21 ± 0.013.
Work on GACGGTTGCG yielded a switch fluorescence ratio of 0.977 ± 0.054.
Sequence GACGTCGGGA has a switch fluorescence ratio of 1.012 ± 0.0021.
GACGTTGGGG was tested, and the switch fluorescence ratio was 0.977 ± 0.01.
For GACGTTTAAT, the switch fluorescence ratio was 1.021 ± 0.0057.
With GACGTTTTGG the switch fluorescence ratio was 0.997 ± 0.025.
For GACTAAAATG, the switch fluorescence ratio was 1.02 ± 0.019.
Sequence GACTAAATGC has a switch fluorescence ratio of 1.8 ± 0.3.
Work on GACTAATACG yielded a switch fluorescence ratio of 1.04 ± 0.024.
GACTACAGTG was tested, and the switch fluorescence ratio was 1.1 ± 0.019.
With GACTAGGAAG the switch fluorescence ratio was 0.994 ± 0.022.
For GACTATTAGG, the switch fluorescence ratio was 0.989 ± 0.029.
GACTATTGGG gave a switch fluorescence ratio of 1 ± 0.044.
For GACTATTTGG, the switch fluorescence ratio was 1.02 ± 0.044.
In the case of GACTCAGACA, the switch fluorescence ratio is reported as 1.03 ± 0.047.
Work on GACTCGAAAA yielded a switch fluorescence ratio of 1.17 ± 0.16.
GACTCTAGGA gave a switch fluorescence ratio of 1.064 ± 0.0025.
For GACTCTATGG, the switch fluorescence ratio was 0.943 ± 0.11.
Sequence GACTGAATAC has a switch fluorescence ratio of 3.91 ± 1.9.
GACTGAGGGG showed a switch fluorescence ratio of 1.02 ± 0.05.
GACTGAGTTG gave a switch fluorescence ratio of 0.998 ± 0.036.
In the case of GACTGGCATA, the switch fluorescence ratio is reported as 1.097 ± 0.0039.
Work on GACTGGCTT yielded a switch fluorescence ratio of 0.9868 ± 0.0073.
GACTGGGGAG showed a switch fluorescence ratio of 0.991 ± 0.056.
GACTGGGGGG showed a switch fluorescence ratio of 0.997 ± 0.041.
With GACTGTAAGC the switch fluorescence ratio was 1.057 ± 0.0074.
For GACTGTACTA, the switch fluorescence ratio was 1.48 ± 0.075.
GACTTACGTT gave a switch fluorescence ratio of 1.22 ± 0.17.
GACTTCGAAA gave a switch fluorescence ratio of 1.63 ± 0.028.
Work on GACTTCGAGC yielded a switch fluorescence ratio of 1.02 ± 0.024.
GACTTGAGGT showed a switch fluorescence ratio of 1.03 ± 0.025.
Work on GACTTGCTGG yielded a switch fluorescence ratio of 0.9876 ± 0.0044.
Sequence GACTTGGAAT has a switch fluorescence ratio of 1 ± 0.041.
Sequence GACTTTGGCA has a switch fluorescence ratio of 0.983 ± 0.034.
Sequence GACTTTGTCA has a switch fluorescence ratio of 1.04 ± 0.025.
Work on GACTTTTACC yielded a switch fluorescence ratio of 1.07 ± 0.027.
Sequence GACTTTTTAG has a switch fluorescence ratio of 0.9801 ± 0.0065.
For GAGAAAGCCC, the switch fluorescence ratio was 1 ± 0.015.
In the case of GAGAAGAGGA, the switch fluorescence ratio is reported as 0.9918 ± 0.0021.
Work on GAGAAGATTT yielded a switch fluorescence ratio of 1.036 ± 0.0016.
With GAGAATCCGG the switch fluorescence ratio was 1 ± 0.087.
Sequence GAGAATGGGT has a switch fluorescence ratio of 0.981 ± 0.022.
With GAGAATGTGT the switch fluorescence ratio was 0.994 ± 0.012.
Work on GAGACACATA yielded a switch fluorescence ratio of 1.09 ± 0.013.
Work on GAGACCGTGT yielded a switch fluorescence ratio of 1.01 ± 0.052.
In the case of GAGACGGGGA, the switch fluorescence ratio is reported as 0.982 ± 0.021.
With GAGACGGGTG the switch fluorescence ratio was 1.01 ± 0.031.
Work on GAGACGGTCT yielded a switch fluorescence ratio of 1.05 ± 0.025.
Work on GAGAGAAGTG yielded a switch fluorescence ratio of 0.945 ± 0.022.
For GAGAGAATGG, the switch fluorescence ratio was 0.994 ± 0.0043.
GAGAGACAGG gave a switch fluorescence ratio of 1.014 ± 0.0095.
GAGAGGAGGG showed a switch fluorescence ratio of 0.944 ± 0.049.
Sequence GAGAGGAGTA has a switch fluorescence ratio of 0.967 ± 0.037.
In the case of GAGAGGCTGC, the switch fluorescence ratio is reported as 0.975 ± 0.02.
GAGAGGCTGT gave a switch fluorescence ratio of 0.9538 ± 0.0062.
In the case of GAGAGGGAGC, the switch fluorescence ratio is reported as 0.91 ± 0.076.
GAGAGGGGCT showed a switch fluorescence ratio of 1.01 ± 0.02.
In the case of GAGAGGGGTC, the switch fluorescence ratio is reported as 1.01 ± 0.045.
GAGAGGTG gave a switch fluorescence ratio of 1.08 ± 0.021.
GAGAGTACGT was tested, and the switch fluorescence ratio was 0.964 ± 0.013.
GAGAGTTATT showed a switch fluorescence ratio of 0.988 ± 0.04.
GAGATATACT gave a switch fluorescence ratio of 1.06 ± 0.017.
Work on GAGATCAGTT yielded a switch fluorescence ratio of 0.9808 ± 0.0058.
With GAGATGATTT the switch fluorescence ratio was 1.02 ± 0.063.
GAGATGGGGC gave a switch fluorescence ratio of 1.09 ± 0.1.
Work on GAGATGTTT yielded a switch fluorescence ratio of 0.969 ± 0.04.
For GAGATTCTTG, the switch fluorescence ratio was 1 ± 0.02.
In the case of GAGATTGGTG, the switch fluorescence ratio is reported as 1 ± 0.031.
With GAGATTGTGG the switch fluorescence ratio was 0.9652 ± 0.0048.
Work on GAGCAAGAGT yielded a switch fluorescence ratio of 1.8 ± 0.046.
Sequence GAGCAGGGCC has a switch fluorescence ratio of 0.982 ± 0.046.
Sequence GAGCATATCA has a switch fluorescence ratio of 1.006 ± 0.0028.
Sequence GAGCCAGGGA has a switch fluorescence ratio of 1.001 ± 0.0029.
Sequence GAGCCCAATG has a switch fluorescence ratio of 1.0092 ± 0.001.
GAGCGGGGGA was tested, and the switch fluorescence ratio was 1.03 ± 0.017.
For GAGCGGTTTG, the switch fluorescence ratio was 0.998 ± 0.017.
GAGCGTCGGA showed a switch fluorescence ratio of 1.03 ± 0.12.
With GAGCTAGGAT the switch fluorescence ratio was 0.985 ± 0.018.
Work on GAGCTGGCGG yielded a switch fluorescence ratio of 1.05 ± 0.038.
With GAGCTTACTT the switch fluorescence ratio was 1.104 ± 0.011.
GAGCTTCTGT showed a switch fluorescence ratio of 1 ± 0.04.
Sequence GAGCTTGAGT has a switch fluorescence ratio of 0.984 ± 0.011.
GAGCTTTTTT gave a switch fluorescence ratio of 0.9986 ± 0.0034.
GAGGAAACAG gave a switch fluorescence ratio of 1.022 ± 0.0067.
In the case of GAGGAACCTG, the switch fluorescence ratio is reported as 1.09 ± 0.0052.
In the case of GAGGAAGGGA, the switch fluorescence ratio is reported as 1.01 ± 0.017.
Sequence GAGGAAGTTT has a switch fluorescence ratio of 1 ± 0.041.
Sequence GAGGAATGAG has a switch fluorescence ratio of 0.9878 ± 0.005.
GAGGAATTGG gave a switch fluorescence ratio of 0.979 ± 0.012.
Work on GAGGACATGC yielded a switch fluorescence ratio of 0.979 ± 0.11.
GAGGAGGGGG gave a switch fluorescence ratio of 0.986 ± 0.032.
With GAGGAGGTAT the switch fluorescence ratio was 0.973 ± 0.019.
In the case of GAGGAGTGAA, the switch fluorescence ratio is reported as 0.9973 ± 0.0067.
GAGGATATAG showed a switch fluorescence ratio of 1.03 ± 0.061.
In the case of GAGGATATGG, the switch fluorescence ratio is reported as 0.98 ± 0.021.
For GAGGATGTCT, the switch fluorescence ratio was 0.99 ± 0.021.
With GAGGATTAGA the switch fluorescence ratio was 0.988 ± 0.015.
For GAGGATTCGG, the switch fluorescence ratio was 0.986 ± 0.026.
With GAGGCAGGGT the switch fluorescence ratio was 1.033 ± 0.0064.
GAGGCATCTC showed a switch fluorescence ratio of 1.02 ± 0.025.
Work on GAGGCCTTGG yielded a switch fluorescence ratio of 0.983 ± 0.04.
With GAGGCGGACT the switch fluorescence ratio was 1.02 ± 0.015.
In the case of GAGGCGGATT, the switch fluorescence ratio is reported as 1.01 ± 0.026.
In the case of GAGGCTAGTG, the switch fluorescence ratio is reported as 0.988 ± 0.0092.
Sequence GAGGCTGGGG has a switch fluorescence ratio of 1 ± 0.038.
In the case of GAGGGAAAAA, the switch fluorescence ratio is reported as 1.44 ± 0.88.
With GAGGGAAGGT the switch fluorescence ratio was 1.02 ± 0.02.
